In IntAct's records for PubMed 21321230:

B1: Netrin receptor DCC (Rattus norvegicus (Rat)), Q63155 (parent)
chain: MENSLGCVWVPKLAFVLFGASLLSAHLQVTGFQIKPFTSLHFVSEPSDAVTMRGGNVLLNCSAESDRGVPVIKWKKDGLILALGMDDRKQQLPNGSLLIQNILHSRHHKPDEGLYQCEASLGDSGSIISRTAKVMVAGPLRFLSQTESITAFMGDTVLLKCEVIGDPMPTIHWQKNQQDLNPIPGDSRVVVLPSGALQISRLQPGDSGVYRCSARNPASTRTGNEAEVRILSDPGLHRQLYFLQRPSNVIAIEGKDAVLECCVSGYPPPSFTWLRGEEVIQLRSKKYSLLGGSNLLISNVTDDDSGTYTCVVTYKNENISASAELTVLVPPWFLNHPSNLYAYESMDIEFECAVSGKPVPTVNWMKNGDVVIPSDYFQIVGGSNLRILGVVKSDEGFYQCVAENEAGNAQSSAQLIVPKPAIPSSSILPSAPRDVVPVLVSSRFVRLSWRPPAEAKGNIQTFTVFFSREGDNRERALNTTQPGSLQLTVGNLKPEAMYTFRVVAYNEWGPGESSQPIKVATQPELQVPGPVENLHAVSASPTSILITWEPPAYANGPVQGYRLFCTEVSTGKEQNIEVDGLSYKLEGLKKFTEYTLRFLAYNRYGPGVSTDDITVVTLSDVPSAPPQNVSLEVVNSRSIKVSWLPPPSGTQNGFITGYKIRHRKTTRRGEMETLEPNNLWYLFTGLEKGSQYSFQVSAMTVNGTGPPSNWYTAETPENDLDESQVPDQPSSLHVRPQTNCIIMSWTPPLNPNIVVRGYIIGYGVGSPYAETVRVDSKQRYYSIERLESSSHYVISLKAFNNAGEGVPLYESATTRSITDPTDPVDYYPLLDDFPTSGPDVSTPMLPPVGVQAVALTHEAVRVSWADNSVPKNQKTSDVRLYTVRWRTSFSASAKYKSEDTTSLSYTATGLKPNTMYEFSVMVTKNRRSSTWSMTAHATTYEAAPTSAPKDLTVITREGKPRAVIVSWQPPLEANGKITAYILFYTLDKNIPIDDWIMETISGDRLTHQIMDLSLDTMYYFRIQARNAKGVGPLSDPILFRTLKVEHPDKMANDQGRHGDGGYWPVDTNLIDRSTLNEPPIGQMHPPHGSVTPQKNSNLLVITVVTVGVLTVLVVVIVAVICTRRSSAQQRKKRATHSASKRKGSQKDLRPPDLWIHHEEMEMKNIEKPAGTDPAGRGSPIQSCQDLTPVSHSQSESQMGSKSASHSGQDTEEAGSSMSTLERSLAARRATRTKLMIPMEAQSNNPAVVSAIPVPTLESAQYPGILPSPTCGYPHPQFTLRPVPFPTLSVDRGFGAGRTVSEGPTAQQQPMLPPAQPEHPSSEEAPSRTIPTACVRPTHPLRSFANPLLPPPMSAIEPKVPYTPLLSQPGPTLPKTHVKTASLGLAGKARSPLLPVSVPTAPEVSEESHKPTEDPASVYEQDDLSEQMASLEGLMKQLNAITGSAF

Variants of: B1
Settings: with myo10_human MYO10, Q9HD67
myo10_human MYO10, Q9HD67, sequence (Q9HD67 whole entry): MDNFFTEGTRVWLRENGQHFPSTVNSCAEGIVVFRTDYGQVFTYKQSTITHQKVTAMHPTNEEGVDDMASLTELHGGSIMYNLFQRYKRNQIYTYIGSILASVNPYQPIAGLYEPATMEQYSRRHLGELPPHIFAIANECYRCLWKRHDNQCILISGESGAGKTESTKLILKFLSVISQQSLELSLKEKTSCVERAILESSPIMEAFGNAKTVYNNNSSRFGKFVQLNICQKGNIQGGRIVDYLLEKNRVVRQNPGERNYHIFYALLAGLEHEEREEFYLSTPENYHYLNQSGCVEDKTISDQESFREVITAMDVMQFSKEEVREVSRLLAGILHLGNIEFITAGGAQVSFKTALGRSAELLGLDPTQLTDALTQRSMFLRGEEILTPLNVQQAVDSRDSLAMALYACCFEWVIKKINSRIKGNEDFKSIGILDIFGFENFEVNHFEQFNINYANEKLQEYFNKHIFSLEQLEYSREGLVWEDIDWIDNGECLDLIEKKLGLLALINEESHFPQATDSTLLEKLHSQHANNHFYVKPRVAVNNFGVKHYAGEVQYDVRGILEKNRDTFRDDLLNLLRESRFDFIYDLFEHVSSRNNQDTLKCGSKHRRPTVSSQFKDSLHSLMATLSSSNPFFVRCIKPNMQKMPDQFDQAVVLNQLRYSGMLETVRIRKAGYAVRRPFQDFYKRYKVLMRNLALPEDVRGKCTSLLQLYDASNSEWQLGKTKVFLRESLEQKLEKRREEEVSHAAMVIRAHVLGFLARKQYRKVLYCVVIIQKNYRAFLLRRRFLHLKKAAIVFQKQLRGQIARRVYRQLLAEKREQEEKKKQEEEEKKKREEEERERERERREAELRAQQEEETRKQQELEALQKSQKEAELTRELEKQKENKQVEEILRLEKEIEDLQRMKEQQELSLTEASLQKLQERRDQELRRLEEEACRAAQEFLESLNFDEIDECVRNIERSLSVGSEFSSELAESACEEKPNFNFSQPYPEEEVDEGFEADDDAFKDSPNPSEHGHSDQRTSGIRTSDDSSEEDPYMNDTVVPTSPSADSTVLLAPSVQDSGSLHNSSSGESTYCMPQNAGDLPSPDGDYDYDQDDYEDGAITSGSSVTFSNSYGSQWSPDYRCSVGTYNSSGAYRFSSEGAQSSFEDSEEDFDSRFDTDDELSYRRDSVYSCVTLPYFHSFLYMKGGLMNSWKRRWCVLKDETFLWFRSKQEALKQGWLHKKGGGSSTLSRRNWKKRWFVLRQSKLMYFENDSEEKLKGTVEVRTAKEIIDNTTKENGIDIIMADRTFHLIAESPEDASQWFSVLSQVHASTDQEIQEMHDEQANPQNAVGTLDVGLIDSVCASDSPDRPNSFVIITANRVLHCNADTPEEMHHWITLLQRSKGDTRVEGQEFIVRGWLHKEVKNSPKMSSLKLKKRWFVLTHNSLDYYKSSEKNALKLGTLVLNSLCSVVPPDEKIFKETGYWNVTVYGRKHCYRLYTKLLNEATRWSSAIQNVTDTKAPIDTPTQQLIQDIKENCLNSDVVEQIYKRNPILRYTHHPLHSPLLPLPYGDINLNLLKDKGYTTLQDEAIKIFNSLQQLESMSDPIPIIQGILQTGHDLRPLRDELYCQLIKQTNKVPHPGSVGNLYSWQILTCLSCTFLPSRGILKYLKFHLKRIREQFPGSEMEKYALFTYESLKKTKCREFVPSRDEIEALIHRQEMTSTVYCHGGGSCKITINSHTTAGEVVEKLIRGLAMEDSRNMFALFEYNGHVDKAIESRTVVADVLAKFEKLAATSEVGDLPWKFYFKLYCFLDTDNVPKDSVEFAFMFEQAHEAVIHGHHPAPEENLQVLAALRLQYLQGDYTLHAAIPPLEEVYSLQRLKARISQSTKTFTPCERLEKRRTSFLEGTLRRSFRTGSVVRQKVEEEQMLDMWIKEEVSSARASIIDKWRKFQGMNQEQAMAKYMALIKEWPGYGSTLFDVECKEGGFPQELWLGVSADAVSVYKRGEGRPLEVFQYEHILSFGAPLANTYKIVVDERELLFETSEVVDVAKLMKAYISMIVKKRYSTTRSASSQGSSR

Variant | effect of a mutation on the interaction
L1437A | disrupting interaction strength
L1433A | disrupting interaction strength
